The source of these data is patent publication US20200138970A1 (Bayer, published 2020).

Assay [1] concerns the target T1, human B7H3 on cancer cell lines (human, UniProt Q5ZPR3 29-534).
T1 sequence (looked up): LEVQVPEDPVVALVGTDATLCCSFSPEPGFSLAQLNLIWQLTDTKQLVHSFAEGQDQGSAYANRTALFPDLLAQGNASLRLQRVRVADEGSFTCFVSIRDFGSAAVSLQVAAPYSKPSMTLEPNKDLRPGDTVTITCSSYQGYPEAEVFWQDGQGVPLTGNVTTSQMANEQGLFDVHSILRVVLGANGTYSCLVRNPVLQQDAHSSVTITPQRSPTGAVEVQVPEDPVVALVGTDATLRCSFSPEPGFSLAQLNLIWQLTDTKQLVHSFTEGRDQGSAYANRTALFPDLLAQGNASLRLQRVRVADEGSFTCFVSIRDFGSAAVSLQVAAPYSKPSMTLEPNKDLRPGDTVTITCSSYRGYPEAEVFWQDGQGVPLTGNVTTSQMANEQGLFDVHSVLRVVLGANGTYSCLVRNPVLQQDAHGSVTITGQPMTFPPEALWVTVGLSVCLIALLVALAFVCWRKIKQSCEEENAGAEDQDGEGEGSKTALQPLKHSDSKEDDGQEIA
Briefly: cell-based or functional assay.

In assay [2] the target is T1, human B7H3 on cancer cell lines. Briefly: cell-based or functional assay. This is another data set of the same source.

Where only a bound is given, the exact number is not on record here.

B1: ADC Example 208-6499 (antibody, human IgG1, lambda, V domains shown)
VH: EVQLLESGGGLVQPGGSLRLSCAASGFTFRDFYMNWIRQAPGKGLEWVSSISASGKYTYYADSVKGRFTISRDNSKNTLYLQMNSLRAEDTAVYYCAREWGYCTNDVCRNWFDPWGQGTLVTVSS
VL: QSVLTQPPSASGTPGQRVTISCSGGYSNVGGNNVNWYQQLPGTAPKLLIYGNSNRPSGVPDRFSGSKSGTSASLAISGLRSEDEADYYCQSYDSSLSGSVFGGGTKLTVLG
modifications: drug-linker from Intermediate F104 on Cys, sites not stated
As for B1, the “MCF-7 CTG (IC50 M)” value in assay [1] was 0.135 nM.

B2: ADC Example 194-6502 (antibody, human IgG1, lambda, V domains shown)
VH: EVQLLESGGGLVQPGGSLRLSCAASGFTFSTYGMHWVRQAPGKGLEWVSAISGSGGSTYYADSVKGRFTISRDNSKNTLYLQMNSLRAEDTAVYYCTRGYYYYGMDVWGQGTLVTVSS
VL: QSVLTQPPSASGTPGQRVTISCSGGSSNIGSNPVNWYQQLPGTAPKLLIYGNSKRPSGVPDRFSGSKSGTSASLAISGLRSEDEADYYCQSYDSSLSGWVFGGGTKLTVLG
modifications: drug-linker from Intermediate F194 on Lys, sites not stated
With B2, in assay [1], the “A498 CTG (IC 50 M)” value was 2.93 nM and the “MCF-7 CTG (IC50 M)” value turned out to be 1 nM.

B3: ADC Example 274-6499 (antibody, human IgG1, lambda, V domains shown)
VH: EVQLLESGGGLVQPGGSLRLSCAASGFTFRDFYMNWIRQAPGKGLEWVSSISASGKYTYYADSVKGRFTISRDNSKNTLYLQMNSLRAEDTAVYYCAREWGYCTNDVCRNWFDPWGQGTLVTVSS
VL: QSVLTQPPSASGTPGQRVTISCSGGYSNVGGNNVNWYQQLPGTAPKLLIYGNSNRPSGVPDRFSGSKSGTSASLAISGLRSEDEADYYCQSYDSSLSGSVFGGGTKLTVLG
modifications: drug-linker from Intermediate F274 on Cys, sites not stated
For the molecule B3, the “U251 CTG (IC50 M)” value in assay [2] worked out at 1.2 nM.

B4: ADC Example 208-6502 (antibody, human IgG1, lambda, V domains shown)
VH: EVQLLESGGGLVQPGGSLRLSCAASGFTFSTYGMHWVRQAPGKGLEWVSAISGSGGSTYYADSVKGRFTISRDNSKNTLYLQMNSLRAEDTAVYYCTRGYYYYGMDVWGQGTLVTVSS
VL: QSVLTQPPSASGTPGQRVTISCSGGSSNIGSNPVNWYQQLPGTAPKLLIYGNSKRPSGVPDRFSGSKSGTSASLAISGLRSEDEADYYCQSYDSSLSGWVFGGGTKLTVLG
modifications: drug-linker from Intermediate F104 on Cys, sites not stated
Take B4: the “U251 CTG (IC50 M)” value in assay [2] amounted to 0.933 nM. Also, the “A498 CTG (IC 50 M)” value in assay [1] worked out at 0.0667 nM.

B5: ADC Example 257-6499 (antibody, human IgG1, lambda, V domains shown)
VH: EVQLLESGGGLVQPGGSLRLSCAASGFTFRDFYMNWIRQAPGKGLEWVSSISASGKYTYYADSVKGRFTISRDNSKNTLYLQMNSLRAEDTAVYYCAREWGYCTNDVCRNWFDPWGQGTLVTVSS
VL: QSVLTQPPSASGTPGQRVTISCSGGYSNVGGNNVNWYQQLPGTAPKLLIYGNSNRPSGVPDRFSGSKSGTSASLAISGLRSEDEADYYCQSYDSSLSGSVFGGGTKLTVLG
modifications: drug-linker from Intermediate F257 on Cys, sites not stated
Turning to B5, the “U251 CTG (IC50 M)” value in assay [2] turned out to be 0.0736 nM. Moreover, in assay [1], the “A498 CTG (IC 50 M)” value was 0.247 nM and the “Caki-2 CTG (IC50 M)” value was less than 0.03 nM.

B6: ADC Example 208-6501 (antibody, human IgG1, lambda, V domains shown)
VH: EVQLLESGGGLVQPGGSLRLSCAASGFTFSSYGMHWVRQAPGKGLEWVSAISGSGGSTYYADSVKGRFTISRDNSKNTLYLQMNSLRAEDTAVYYCARGSNYLGMDVWGQGTLVTVSS
VL: QSVLTQPPSASGTPGQRVTISCSGSSSNIGRNIVNWYQQLPGTAPKLLIYRSNQRPSGVPDRFSGSKSGTSASLAISGLRSEDEADYYCQTWGTGWVFGGGTKLTVLG
modifications: drug-linker from Intermediate F104 on Cys, sites not stated
B6: the “U251 CTG (IC50 M)” value in assay [2] came out at 0.295 nM. In assay [1], the “A498 CTG (IC 50 M)” value is less than 0.03 nM and the “MCF-7 CTG (IC50 M)” value was 0.161 nM.

B7: ADC Example 281-6501 (antibody, human IgG1, lambda, V domains shown)
VH: EVQLLESGGGLVQPGGSLRLSCAASGFTFSSYGMHWVRQAPGKGLEWVSAISGSGGSTYYADSVKGRFTISRDNSKNTLYLQMNSLRAEDTAVYYCARGSNYLGMDVWGQGTLVTVSS
VL: QSVLTQPPSASGTPGQRVTISCSGSSSNIGRNIVNWYQQLPGTAPKLLIYRSNQRPSGVPDRFSGSKSGTSASLAISGLRSEDEADYYCQTWGTGWVFGGGTKLTVLG
modifications: drug-linker from Intermediate F281 on Cys, sites not stated
Regarding B7, in assay [2], the “U251 CTG (IC50 M)” value was 29.9 nM.

B8: ADC Example 208-6515 (antibody, human IgG1, lambda, V domains shown)
VH: EVQLLESGGGLVQPGGSLRLSCAASGFTFSSYGMHWVRQVPGKGLEWVSAISGSGGTTYYADSVKGRFTISRDNSKNTLYLQMNSLRAEDTAVYYCARGGYHFLFDYWGQGTLVTVSS
VL: QSVLTQPPSASGTPGQRVTISCSGSSSNIGSNTVNWYQQLPGTAPKLLIYRNDQRLLGVPDRFSGSKSGTSASLAISGLRSEDEADYYCQSYDSSLSGWVFGGGTKLTVLG
modifications: drug-linker from Intermediate F104 on Cys, sites not stated
In the case of B8, the “U251 CTG (IC50 M)” value in assay [2] worked out at 0.41 nM. Besides, in assay [1], the “A498 CTG (IC 50 M)” value was 0.688 nM and the “MCF-7 CTG (IC50 M)” value is 0.338 nM.

B9: ADC Example 297-6501 (antibody, human IgG1, lambda, V domains shown)
VH: EVQLLESGGGLVQPGGSLRLSCAASGFTFSSYGMHWVRQAPGKGLEWVSAISGSGGSTYYADSVKGRFTISRDNSKNTLYLQMNSLRAEDTAVYYCARGSNYLGMDVWGQGTLVTVSS
VL: QSVLTQPPSASGTPGQRVTISCSGSSSNIGRNIVNWYQQLPGTAPKLLIYRSNQRPSGVPDRFSGSKSGTSASLAISGLRSEDEADYYCQTWGTGWVFGGGTKLTVLG
modifications: drug-linker from Intermediate F297 on Cys, sites not stated
With B9, in assay [2], the “U251 CTG (IC50 M)” value was 0.704 nM.

B10: ADC Example 284-6501 (antibody, human IgG1, lambda, V domains shown)
VH: EVQLLESGGGLVQPGGSLRLSCAASGFTFSSYGMHWVRQAPGKGLEWVSAISGSGGSTYYADSVKGRFTISRDNSKNTLYLQMNSLRAEDTAVYYCARGSNYLGMDVWGQGTLVTVSS
VL: QSVLTQPPSASGTPGQRVTISCSGSSSNIGRNIVNWYQQLPGTAPKLLIYRSNQRPSGVPDRFSGSKSGTSASLAISGLRSEDEADYYCQTWGTGWVFGGGTKLTVLG
modifications: drug-linker from Intermediate F284 on Cys, sites not stated
On to B10, for which the “U251 CTG (IC50 M)” value in assay [2] came to 62.9 nM.

B11: ADC Example 173-6515 (antibody, human IgG1, lambda, V domains shown)
VH: EVQLLESGGGLVQPGGSLRLSCAASGFTFSSYGMHWVRQVPGKGLEWVSAISGSGGTTYYADSVKGRFTISRDNSKNTLYLQMNSLRAEDTAVYYCARGGYHFLFDYWGQGTLVTVSS
VL: QSVLTQPPSASGTPGQRVTISCSGSSSNIGSNTVNWYQQLPGTAPKLLIYRNDQRLLGVPDRFSGSKSGTSASLAISGLRSEDEADYYCQSYDSSLSGWVFGGGTKLTVLG
modifications: drug-linker from Intermediate F173 on Cys, sites not stated
B11: in assay [1], the “A498 CTG (IC 50 M)” value is greater than 307 nM and the “Caki-2 CTG (IC50 M)” value stood at 2.57 nM.
